No end group written: not given here.
How the values were obtained:
[1] = biological target: T1, peptide 12-20 with alanine at aa 20 (A20) (also: biotinylated, position not given here); experiment: ELISA on biotinylated peptides on streptavidin plates
T1 construct: Second library; the entry already carries the alanine
T1 peptide: VHHQKLVFA
Experimental: (§1) Epitope mapping of the monoclonal antibody mACI-01-Ab7 C2 was performed by ELISA using three different peptide libraries. One library comprises a total of 33 biotinylated peptides covering the complete amino acid (aa) sequence of Aβ1-42 (produced by Mimotopes and purchased from ANAWA Trading SA), the second library contains biotinylated peptides using peptide 12 (aa12-20 of Aβ) from the first peptide library and substituting each amino acid in the sequence by an alanine (see table 41 below), and the third library contains biotinylated peptides 13, 14, or 15 (aa 13-21, 14-22 or 15-23 of Aβ) and substituting in each case the last amino acids to an alanine or to a glycine for aa 21 which is already an alanine (see table 5 below). A biotinylated complete Aβ1-42 peptide was used as positive control (Bachem). Epitope mapping was done according to the manufacturer's (Mimotopes) instructions. Briefly, Streptavidin coated plates (NUNC) were blocked with 0.1% BSA in PBS overnight at 4° C. After washing with PBS-0.05% Tween 20, plates were coated for 1 hour at RT with the different peptides from the library, diluted in 0.1% BSA, 0.1% Sodium Azide in PBS to a final concentration of 10 μM. After washing, plates were incubated for 1 hour at RT with the mACI-01-Ab7 C2 antibody or an isotype control mouse IgG2b antibody, diluted to 10 μg/ml in 2% BSA, 0.1% Sodium Azide in PBS. Plates were washed again and incubated with alkaline phosphatase conjugated goat anti mouse IgG for 1 h at RT. After final washing, plates were incubated with phosphatase substrate (pNPP) and read at 405 nm using an ELISA plate reader.
(§2) It was shown that the monoclonal antibody mACI-01-Ab7 C2 bound specifically to peptides 12, 13, 14 and 15 of the first peptide library. […] A second library with alanine substitutions was used to determine the critical aa for binding to peptide 12-20 ([…]) (SEQ ID NO: 29).

[2] = biological target: T2, peptide 12-20 with alanine at aa 19 (A19) (also: biotinylated, position not given here); experiment: as above
T2 construct: Second library; the entry already carries the alanine
T2 peptide: VHHQKLVAF
Experimental: as §1, §2

[3] = biological target: T3, peptide 12-20 with alanine at aa 16 (A16) (also: biotinylated (position not given here)); experiment: as above
T3 construct: Second library; the entry already carries the alanine
T3 peptide: VHHQALVFF
Experimental: as §1, §2

[4] = biological target: T4, peptide 12-20 with alanine at aa 17 (A17) (also: biotinylated (position not given here)); experiment: as above
T4 construct: Second library; the entry already carries the alanine
T4 peptide: VHHQKAVFF
Experimental: as §1, §2

Aβ1-42 fibers = biological target: T5, Aβ1-42 fibers (UniProt P05067 672-713); experiment: binding affinity ELISA on plates coated with amyloid, alkaline phosphatase anti-mouse IgG detection
T5 construct: domain: Aβ1-42; Aggregated, fibrillar state of Aβ1-42 (incubated for days at 37 °C); number of peptide copies not defined; also called Amyloid 1-42 fibrils; fibrillar Aβ1-42
T5 sequence (P05067 672-713 limits assumed): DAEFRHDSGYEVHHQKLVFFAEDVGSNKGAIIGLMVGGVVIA
Experimental: (§3) In order to evaluate the specificity of mACI-01-Ab7 C2 to different stages of polymerized amyloid protein, monomeric and polymeric soluble amyloid, particularly, amyloid β (Aβ) protein, and fibrillic amyloid, an ELISA coated with these different stages of polymeric beta-amyloid was performed. Monomers were prepared according to a modified method published by⁷, polymeric soluble amyloid, particularly, amyloid β (Aβ) according to⁸, whereas fibers were performed by incubation of amyloid (Bachem, Switzerland) with a final concentration of 1 μg/μl in Tris/HC1 pH 7.4 at 37° C. for 5 days followed by a centrifugation step (10,000 rpm for 5 minutes). Then amyloid polymers were coated on an ELISA plates with a final concentration of […] and binding affinity ELISA by using an anti-mouse IgG monoclonal antibody (Jackson ImmunoResearch Laboratories, Inc.) labelled with alkaline phosphate was performed.

Aβ1-42 oligomers = biological target: T6, Aβ1-42 oligomers (UniProt P05067 672-713); experiment: as above
T6 construct: domain: Aβ1-42; Soluble oligomeric preparation (SDS-induced); number of copies not defined; also called amyloid oligomers; polymeric soluble amyloid β (Aβ) protein
T6 sequence (P05067 672-713 limits assumed): as above
Experimental: as §3

Aβ1-42 monomers = biological target: T7, Aβ1-42 monomers (UniProt P05067 672-713); experiment: as above
T7 construct: domain: Aβ1-42; Unlabelled monomeric preparation (HFIP film, DMSO, PBS); also called Amyloid monomers; Aβ1-42 monomeric peptide
T7 sequence (P05067 672-713 limits assumed): as above
Experimental: as §3

B1: mACI-01-Ab7 C2 (antibody, mouse IgG2b, kappa, V domains shown)
VH: EVQLVESGGGLVQPGGSLKLSCAASGFTFSSYGMSWVRQTPDKRLELVASINSNGGSTYYPDSVKGRFTISRDNAKNTLYLQMSSLKSEDTAMYYCASGDYWGQGSTLTVSS
VL: DVVMTQTPLSLPVSLGDQASISCRSSQSLVYSNGDTYLHWYLQKPGQSPKLLIYKVSNRFSGVPDRFSGSGSGTDFTLKISRVEAEDLGVYFCSQSTHVPWTFGGGTKLEIKR
notes: also called mC2; Mouse C2
binding result [1]: no binding (tested: antibody at 10 µg/ml) | binding result [2]: no binding (tested: antibody at 10 µg/ml) | binding result [3]: no binding (tested: antibody at 10 µg/ml) | binding result [4]: no binding (tested: antibody at 10 µg/ml) | IC50 (Aβ1-42 fibers): 5.27 nM | IC50 (Aβ1-42 oligomers): 2.53 nM | IC50 (Aβ1-42 monomers): 8.3 nM

Source: patent publication US20120244165A1 (published 2012)
